Data: patent US20230272073A1 (AVA LIFESCIENCE, published 2023)

Target: T1, soluble recombinant version of the IGLV3-21^R110-harboring B-cell receptor, produced as monomeric human IgM (human)
T1 construct: 170.5 kDa, made by transient expression in 293-HEK cells; It was the analyte in solution in BLI; also called soluble IGLV3-21^R110 B-cell receptor; soluble BCR-fragment
Test: BLI (Octet)
Method: Kinetic assays were performed by first immobilizing the anti IGLV3-21^R110 antibodies onto biosensors through an indirect capturing reagent, anti-human IgG Fc antibody. Anti IGLV3-21^R110 antibodies were loaded at a concentration of 0.01875 μg/ml to generate an anti IGLV3-21^R110 antibody capture level of between 0.30 and 0.34 nm. […] The anti IGLV3-21^R110 antibody capture biosensors were then submerged in wells containing the different concentrations of the soluble BCR-fragment for 900 seconds (association stage) followed by a dissociation step of 1200 seconds in running buffer. Steps were performed at a constant shake speed of 1000 rpm. All reagents were used as described by the manufacturer. Sensorgrams were generated after double reference correction (buffer and blank sensors) to compensate for both the natural dissociation of the capture anti IGLV3-21^R110 antibody and also non-specific binding of the soluble BCR-fragment to the sensor surface. […] (KD) were calculated based on the ratio of association (kₐ) and dissociation rate (kd) constants, obtained by fitting sensorgrams with a first order 1:1 binding model using the Fortebio Data Analysis software (Satorius).
For the KD values of all humanized antibodies, see Table 3.

T1 sequence (heavy, as listed by the source limits assumed, chain 1 of 2): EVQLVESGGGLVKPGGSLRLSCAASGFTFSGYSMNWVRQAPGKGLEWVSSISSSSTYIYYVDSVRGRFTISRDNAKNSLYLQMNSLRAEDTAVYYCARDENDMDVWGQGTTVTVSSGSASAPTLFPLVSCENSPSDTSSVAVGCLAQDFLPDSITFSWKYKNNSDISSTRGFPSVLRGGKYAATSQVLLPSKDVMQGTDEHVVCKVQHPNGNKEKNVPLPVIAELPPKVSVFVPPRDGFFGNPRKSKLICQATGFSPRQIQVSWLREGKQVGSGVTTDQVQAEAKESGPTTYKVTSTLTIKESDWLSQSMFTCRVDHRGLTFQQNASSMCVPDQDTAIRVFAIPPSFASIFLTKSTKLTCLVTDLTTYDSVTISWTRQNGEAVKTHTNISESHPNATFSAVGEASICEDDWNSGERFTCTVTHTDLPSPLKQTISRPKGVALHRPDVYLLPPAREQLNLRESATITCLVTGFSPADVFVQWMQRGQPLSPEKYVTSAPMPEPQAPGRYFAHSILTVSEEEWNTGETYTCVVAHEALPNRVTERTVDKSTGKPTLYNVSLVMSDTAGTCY
T1 sequence (light, as listed by the source limits assumed, chain 2 of 2): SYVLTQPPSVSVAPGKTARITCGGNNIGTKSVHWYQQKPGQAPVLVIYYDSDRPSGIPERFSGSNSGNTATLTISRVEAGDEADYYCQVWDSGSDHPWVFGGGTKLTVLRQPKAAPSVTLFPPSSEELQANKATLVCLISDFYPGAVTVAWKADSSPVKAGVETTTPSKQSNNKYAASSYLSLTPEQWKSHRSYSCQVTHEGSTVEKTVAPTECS

B1: HC7-LC6 (antibody, human IgG1, kappa, V domains shown)
VH: QVQLQESGPGLVKPSETLSLTCTVSGFSLTSYGIHWIRQSPGRGLEWIGVIWRGGGTDSNAAFMSRITISRDTSKTQVSLKLGSVTAADTAIYYCARSRYDEEESMNYWGQGTSVTVSS
VL: EIVLTQSPSSLSASVGDSVTITCRASGNIHSYLAWYQQKPGKAPKLLIYNAKTLADGVPSRFSGSGSGTQYTLTISSLQPEDFATYYCQHFWNTPPTFGAGTKLELKR
notes: Humanized antibody, human IgG1 / kappa
fold of dissociation constant relative to chimeric antibody HC0-LC0: ≤ 2 fold
